Laboratory results from US8771644B2, “Imaging probes” (Sanofi, priority 2007, dated 2014).

Experiments:
Format in all cases: biochemical
[1] = system: CN(C)c1ccc2c(c1)Oc1cc(N(C)C)ccc1C21OC(=O)c2cc(C(=O)NCC[C@H](NC(=O)[C@H](CC3CCCCC3)NC(=O)N3CCOCC3)C(=O)NCCNC(=O)c3ccc(-c4c5ccc(=O)cc-5oc5cc(O)ccc45)c(C(=O)O)c3)ccc21; test: in vitro activity assay (fluorescence, substrate cleavage) with Cath B; conditions: other: Cath B; measurement performed at pH 5.5; pH 5.5; 37.0 °C
Experimental: (§1) […] The substrates were solved in DMSO and added to enzyme solution with a final concentration of 50 μM.
(§2) Fluorescence was measured with an Tecan SAFIRE II spectrometer (excitation wavelength: 336 nm; emission wavelength: 490 nm; excitation band: 10.0 nm; emission band: 10.0 nm; amplification (manual): 90).

[2] = system: CN(C)c1ccc(/N=N/c2ccc(C(=O)NCCCC[C@H](NC(=O)[C@H](CCC(=O)NCCNc3cccc4c(S(=O)(=O)O)cccc34)NC(=O)[C@H](CC3CCCCC3)NC(=O)N3CCOCC3)C(=O)O)cc2)cc1; test: as above; conditions: other: Cath B; measurement performed at pH 7.5; pH 7.5; 37.0 °C
Experimental: as §1, §2

[3] = system: CN(C)c1ccc2c(c1)Oc1cc(N(C)C)ccc1C21OC(=O)c2cc(C(=O)NCC[C@H](NC(=O)[C@H](CC3CCCCC3)NC(=O)N3CCOCC3)C(=O)NCCNC(=O)c3ccc(-c4c5ccc(=O)cc-5oc5cc(O)ccc45)c(C(=O)O)c3)ccc21; test: in vitro activity assay (fluorescence, substrate cleavage) with Cath L; conditions: other: Cath L; measurement performed at pH 5.5; pH 5.5; 37.0 °C
Experimental: as §1, §2

[4] = system: CN(C)c1ccc(/N=N/c2ccc(C(=O)NCCCC[C@H](NC(=O)[C@H](CCC(=O)NCCNc3cccc4c(S(=O)(=O)O)cccc34)NC(=O)[C@H](CC3CCCCC3)NC(=O)N3CCOCC3)C(=O)O)cc2)cc1; test: as above; conditions: other: Cath L; measurement performed at pH 7.5; pH 7.5; 37.0 °C
Experimental: as §1, §2

Cath L (Homo sapiens), sequence (chain, as listed by the source): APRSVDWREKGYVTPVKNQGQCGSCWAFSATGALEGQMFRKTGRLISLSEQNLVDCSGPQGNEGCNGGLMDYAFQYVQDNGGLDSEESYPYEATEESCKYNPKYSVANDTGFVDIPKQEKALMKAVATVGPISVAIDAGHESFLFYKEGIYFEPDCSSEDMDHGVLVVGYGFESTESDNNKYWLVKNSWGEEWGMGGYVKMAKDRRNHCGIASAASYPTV

Row | Substance | Km [1] [mM] | Vmax [1] [µmol/min] | kcat [1] [s⁻¹] | Km [2] [mM] | Vmax [2] [µmol/min] | kcat/Km [2] [M⁻¹ s⁻¹] | Km [3] [mM] | Vmax [3] [µmol/min] | kcat [3] [s⁻¹] | Km [4] [mM] | Vmax [4] [µmol/min] | kcat [4] [s⁻¹] | kcat/Km [4] [M⁻¹ s⁻¹]
1 | Cath B (Homo sapiens) | 0.88 | 0.156 | 0.25 | 0.12 | 0.006 | 250 |  |  |  |  |  |  | 
2 | Cath L (Homo sapiens) |  |  |  |  |  |  | 7.1 | 0.582 | 3.01 | 8.3 | 0.27 | 1.26 | 152
